B1: Speckle-type POZ protein (Homo sapiens), O43791 (parent)
chain: MSRVPSPPPPAEMSSGPVAESWCYTQIKVVKFSYMWTINNFSFCREEMGEVIKSSTFSSGANDKLKWCLRVNPKGLDEESKDYLSLYLLLVSCPKSEVRAKFKFSILNAKGEETKAMESQRAYRFVQGKDWGFKKFIRRDFLLDEANGLLPDDKLTLFCEVSVVQDSVNISGQNTMNMVKVPECRLADELGGLWENSRFTDCCLCVAGQEFQAHKAILAARSPVFSAMFEHEMEESKKNRVEINDVEPEVFKEMMCFIYTGKAPNLDKMADDLLAAADKYALERLKVMCEDALCSNLSVENAAEILILADLHSADQLKTQAVDFINYHASDVLETSGWKSMVVSHPHLVAEAYRSLASAQCPFLGPPRKRLKQS
partner: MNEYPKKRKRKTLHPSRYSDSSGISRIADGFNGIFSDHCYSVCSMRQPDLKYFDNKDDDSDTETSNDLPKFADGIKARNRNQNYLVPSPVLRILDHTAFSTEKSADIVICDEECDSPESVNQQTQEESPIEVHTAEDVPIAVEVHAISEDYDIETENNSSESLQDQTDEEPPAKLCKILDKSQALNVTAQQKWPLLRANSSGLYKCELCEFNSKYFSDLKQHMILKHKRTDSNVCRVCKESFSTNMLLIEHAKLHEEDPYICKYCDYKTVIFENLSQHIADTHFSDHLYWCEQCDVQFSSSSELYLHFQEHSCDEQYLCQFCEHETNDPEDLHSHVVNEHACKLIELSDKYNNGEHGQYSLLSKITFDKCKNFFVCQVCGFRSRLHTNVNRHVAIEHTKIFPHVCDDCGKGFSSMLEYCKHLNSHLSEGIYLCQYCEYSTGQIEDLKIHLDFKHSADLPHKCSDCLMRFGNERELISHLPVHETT
B2: Speckle-type POZ protein (Homo sapiens), O43791 (parent)
chain: B1 chain
partner: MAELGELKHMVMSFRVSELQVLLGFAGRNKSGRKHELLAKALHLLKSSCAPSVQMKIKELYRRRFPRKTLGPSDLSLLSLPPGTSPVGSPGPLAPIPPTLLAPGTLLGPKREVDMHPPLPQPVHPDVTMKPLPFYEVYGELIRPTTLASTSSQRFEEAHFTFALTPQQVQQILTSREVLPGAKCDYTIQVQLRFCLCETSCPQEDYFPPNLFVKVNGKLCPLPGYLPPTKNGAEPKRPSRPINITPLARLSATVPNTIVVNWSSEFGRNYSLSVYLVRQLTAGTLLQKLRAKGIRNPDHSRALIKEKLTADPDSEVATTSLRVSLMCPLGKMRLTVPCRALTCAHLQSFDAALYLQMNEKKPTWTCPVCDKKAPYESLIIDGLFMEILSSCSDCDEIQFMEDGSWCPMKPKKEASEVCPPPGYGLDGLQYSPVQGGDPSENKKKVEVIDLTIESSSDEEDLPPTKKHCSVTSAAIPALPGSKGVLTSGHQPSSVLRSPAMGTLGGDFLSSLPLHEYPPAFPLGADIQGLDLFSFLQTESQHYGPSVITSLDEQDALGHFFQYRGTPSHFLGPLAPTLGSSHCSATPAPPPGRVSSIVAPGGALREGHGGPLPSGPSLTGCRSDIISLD
B3: Speckle-type POZ protein (Homo sapiens), O43791 (parent)
chain: B1 chain
partner: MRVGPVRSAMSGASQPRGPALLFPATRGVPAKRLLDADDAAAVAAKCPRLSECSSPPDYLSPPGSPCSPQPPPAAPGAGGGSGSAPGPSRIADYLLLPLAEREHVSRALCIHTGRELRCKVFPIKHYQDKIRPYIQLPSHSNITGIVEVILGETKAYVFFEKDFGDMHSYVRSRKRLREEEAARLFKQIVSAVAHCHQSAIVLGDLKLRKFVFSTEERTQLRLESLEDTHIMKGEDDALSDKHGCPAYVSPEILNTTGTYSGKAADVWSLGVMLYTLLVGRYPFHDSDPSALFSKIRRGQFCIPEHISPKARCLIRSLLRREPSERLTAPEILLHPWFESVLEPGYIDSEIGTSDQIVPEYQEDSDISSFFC
B4: Speckle-type POZ protein (Homo sapiens), O43791 (parent)
chain: B1 chain
partner: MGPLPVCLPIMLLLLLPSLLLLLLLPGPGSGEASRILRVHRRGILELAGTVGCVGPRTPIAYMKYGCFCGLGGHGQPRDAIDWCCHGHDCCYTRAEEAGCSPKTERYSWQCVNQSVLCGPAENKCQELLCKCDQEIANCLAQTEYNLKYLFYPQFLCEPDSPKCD
B5: Speckle-type POZ protein (Homo sapiens), O43791 (parent)
chain: B1 chain
partner: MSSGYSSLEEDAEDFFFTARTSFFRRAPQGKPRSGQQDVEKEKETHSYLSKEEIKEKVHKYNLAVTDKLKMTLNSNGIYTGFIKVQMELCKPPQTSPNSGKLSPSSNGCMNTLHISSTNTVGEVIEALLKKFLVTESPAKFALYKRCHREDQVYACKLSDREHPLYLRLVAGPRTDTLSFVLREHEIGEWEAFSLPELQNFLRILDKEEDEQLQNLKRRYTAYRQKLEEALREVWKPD
B6: Speckle-type POZ protein (Homo sapiens), O43791 (parent)
chain: B1 chain
partner: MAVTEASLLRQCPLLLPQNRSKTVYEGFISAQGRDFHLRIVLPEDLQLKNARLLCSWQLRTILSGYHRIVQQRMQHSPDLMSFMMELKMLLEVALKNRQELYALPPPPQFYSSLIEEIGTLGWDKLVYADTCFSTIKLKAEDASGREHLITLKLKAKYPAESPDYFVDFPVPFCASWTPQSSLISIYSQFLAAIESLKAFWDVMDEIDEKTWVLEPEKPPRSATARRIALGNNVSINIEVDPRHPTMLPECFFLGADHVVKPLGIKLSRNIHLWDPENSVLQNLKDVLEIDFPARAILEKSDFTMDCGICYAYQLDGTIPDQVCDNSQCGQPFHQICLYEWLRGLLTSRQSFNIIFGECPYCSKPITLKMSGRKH
B7: Speckle-type POZ protein (Homo sapiens), O43791 (parent)
chain: B1 chain
partner: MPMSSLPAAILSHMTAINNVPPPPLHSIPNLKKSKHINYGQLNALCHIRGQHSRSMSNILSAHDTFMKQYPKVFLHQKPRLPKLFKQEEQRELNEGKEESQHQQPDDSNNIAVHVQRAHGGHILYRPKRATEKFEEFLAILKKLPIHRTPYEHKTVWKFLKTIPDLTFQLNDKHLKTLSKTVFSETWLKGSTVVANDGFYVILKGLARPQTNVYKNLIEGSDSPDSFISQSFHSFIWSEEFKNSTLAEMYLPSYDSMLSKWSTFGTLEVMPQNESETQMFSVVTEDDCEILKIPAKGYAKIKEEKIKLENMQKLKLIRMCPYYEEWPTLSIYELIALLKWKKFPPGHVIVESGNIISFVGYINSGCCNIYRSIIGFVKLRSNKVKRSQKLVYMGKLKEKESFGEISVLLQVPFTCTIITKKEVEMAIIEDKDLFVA

Variants of: B1
Settings: with zn639_human ZNF639, Q9UID6

effect of a mutation on the interaction	Variant
with no effect	F102C

Variants of: B1
Settings: with zn639_human ZNF639, Q9UID6
Remark: another data set of the same source

effect of a mutation on the interaction	Variant
with no effect	F133V

Variants of: B1
Settings: with zn639_human ZNF639, Q9UID6
Remark: another data set of the same source

effect of a mutation on the interaction	Variant
with no effect	F133L

Variants of: B2
Settings: with pias3_human PIAS3, Q9Y6X2

effect of a mutation on the interaction	Variant
with no effect	Y87C

Variants of: B2
Settings: with pias3_human PIAS3, Q9Y6X2
Remark: another data set of the same source

effect of a mutation on the interaction	Variant
with no effect	F133V

Variants of: B2
Settings: with pias3_human PIAS3, Q9Y6X2
Remark: another data set of the same source

effect of a mutation on the interaction	Variant
with no effect	F133L

Variants of: B3
Settings: with trib1_human TRIB1, Q96RU8

effect of a mutation on the interaction	Variant
with no effect	F102C

Variants of: B3
Settings: with trib1_human TRIB1, Q96RU8
Remark: another data set of the same source

effect of a mutation on the interaction	Variant
with no effect	Y87C

Variants of: B3
Settings: with trib1_human TRIB1, Q96RU8
Remark: another data set of the same source

effect of a mutation on the interaction	Variant
causing an interaction	F133V

Variants of: B3
Settings: with trib1_human TRIB1, Q96RU8
Remark: another data set of the same source

effect of a mutation on the interaction	Variant
causing an interaction	F133L

Variants of: B4
Settings: with pa2gx_human PLA2G10, O15496

effect of a mutation on the interaction	Variant
with no effect	Y87C

Variants of: B4
Settings: with pa2gx_human PLA2G10, O15496
Remark: another data set of the same source

effect of a mutation on the interaction	Variant
with no effect	F133L

Variants of: B4
Settings: with pa2gx_human PLA2G10, O15496
Remark: another data set of the same source

effect of a mutation on the interaction	Variant
with no effect	F133V

Variants of: B4
Settings: with pa2gx_human PLA2G10, O15496
Remark: another data set of the same source

effect of a mutation on the interaction	Variant
with no effect	F102C

Variants of: B5
Settings: with rasf3_human RASSF3, Q86WH2

effect of a mutation on the interaction	Variant
with no effect	F102C

Variants of: B5
Settings: with rasf3_human RASSF3, Q86WH2
Remark: another data set of the same source

effect of a mutation on the interaction	Variant
with no effect	Y87C

Variants of: B5
Settings: with rasf3_human RASSF3, Q86WH2
Remark: another data set of the same source

effect of a mutation on the interaction	Variant
with no effect	F133L

Variants of: B5
Settings: with rasf3_human RASSF3, Q86WH2
Remark: another data set of the same source

effect of a mutation on the interaction	Variant
with no effect	F133V

Variants of: B6
Settings: with fancl_human FANCL

effect of a mutation on the interaction	Variant
with no effect	F133L

Variants of: B6
Settings: with fancl_human FANCL
Remark: another data set of the same source

effect of a mutation on the interaction	Variant
with no effect	Y87C

Variants of: B7
Settings: with cnbd1_human CNBD1, Q8NA66

effect of a mutation on the interaction	Variant
with no effect	F133L

Variants of: B7
Settings: with cnbd1_human CNBD1, Q8NA66
Remark: another data set of the same source

effect of a mutation on the interaction	Variant
with no effect	F133V

Variants of: B7
Settings: with cnbd1_human CNBD1, Q8NA66
Remark: another data set of the same source

effect of a mutation on the interaction	Variant
with no effect	Y87C
